This note sets out measurements from publication PMC7022617.

The test system of data set [1] is hemagglutinin H9 on virus particles (Influenza A virus A/duck/Primorie/3628/2002 (H9N2)). Description: ELAA.
Data set [2] concerns hemagglutinin H3 on virus particles (Influenza A virus A/England/42/1972 (H3N2)). Description: ELAA.
The subject of data set [3] is hemagglutinin H5 on virus particles (Influenza A virus A/chicken/Kurgan/3654at/2005 (H5N1)). Nature of the data set: ELAA.
In data set [4] the test system is hemagglutinin H7 on virus particles (Influenza A virus A/mallard/Sweden/91/2002 (H7N9)). Nature of the data set: ELAA.
Data set [5] deals with hemagglutinin HA1 subunit H3 (recombinant, Abcam ab69749) (Influenza A virus H3 (strain not given)). Description: SPR.
Data set [6] concerns hemagglutinin HA1 subunit H9 (recombinant, Abcam ab67740) (Influenza A virus H9 (strain not given)). Description: SPR.
The subject of data set [7] is hemagglutinin HA1 subunit H1 (recombinant, Abcam ab69741) (Influenza A virus H1 (strain not given)). Description: SPR.

For orientation: Kd means a measure of binding affinity in units of concentration. As to “TTGGGGTAAGAAGGGAGGGCGGGGGTT [5'-biotin G7-TAAGAA]”, the Kd in data set [1] turned out to be 7 nM; in data set [2] it was 17 nM; in data set [3], 9 nM; in data set [4] it was 13 nM.

On to TTGGGGTAAGAAGGGAGGGCGGGGGTT [G7-TAAGAA], for which the Kd in data set [5], in data set [6] and in data set [7] was 60 nM each time.

On to “TTGGGGTTAGGGAGGGCGGGGGTT [5'-biotin G7-TTA]”, for which the Kd in data set [1] came out at 10 nM; in data set [2] it was 7 nM; in data set [3], 13 nM; in data set [4] it was 6 nM.

In the case of TTGGGGTTAGGGAGGGCGGGGGTT [G7-TTA], the results for the Kd in data set [5], in data set [6] and in data set [7] were 16 nM, 28 nM and 30 nM, respectively.

For TTGGGGTTATTTTGGGAGGGCGGGGGTT [RHA0385], the Kd in data set [5] is 12 nM; in data set [6], 14 nM; in data set [7], 7 nM.

For the sequence “TTGGGGTTATTTTGGGAGGGCGGGGGTT [5'-biotin RHA0385]”, the Kd in data set [1] came to 5 nM; in data set [2], 2 nM; in data set [3], 4 nM; in data set [4], 8 nM.

In the case of “TTGGGGTTATTAAGGGAGGGCGGGGGTT [5'-biotin G7-TTATTAA]”, the Kd worked out at 8 nM in data set [1], 8 nM in data set [2], 5 nM in data set [3] and 13 nM in data set [4].

In the case of “TTGGGGTTATTAAGGGAGGGCGGGGGTT [G7-TTATTAA]”, the Kd in data set [5] is 50 nM; in data set [6] it was 28 nM; in data set [7], 90 nM.
